assay: yeast display, Sf9 membrane polyspecificity reagent, FACS + sequencing; frameworks hold sequencing errors
Procedure, shortened: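 Sorting gates, low and high (top ~1%), were placed on anti-HA fluorescence to track expression and on streptavidin fluorescence to track reagent binding. A clone's polyreactivity label is taken from the gate it came out of. The reagent was 10% biotinylated, detergent-solubilized Sf9 membrane, applied for 1 hour at 4 °C to galactose-induced yeast display cells.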

Sequence | polyreactivity (PSR sort gate)
QVHLVESGGGLVQAGGSLRLSGAASGLTFSGNAMGWYRQAPGKERELVAAISWNGGRTYYADSVKGRFTISRDNAKNTVYLQMNSLKPEDTAVYYCAAEVRYSTYEDYDYWGQGTEVTVSS | low polyreactivity
QVHLVESGGGLVQAGGSLRLSGAASGRIFFSNAMGWYRQAPGKEWELVAAISTSGGSTYYADSVKGRFTISRENAKNTVYLQMNSLKPEDTAVYYCNAVYYTSYSGYHFVYEYDYWGQGTQVTVSS | low polyreactivity
QVHLVESGGGLVQAGGSLRLSLAASGSIFHPYAMGWYRQAPGKERELVAAISKSGGNTYYADSVKGRFTISRDNAKNNVYLQMNSLKPVDPEVYYCAALDYWGQGTKVTVSS | low polyreactivity
QVHLVESGGGLVQAGGSLRLSSAASGITFWHNTMGWYRQAPGKERELVAAISWTGGRTYYADSVKGRFTISRDNAKNTVYLQMNSLKPEDTAVFSCAADFSWTPCGNYDSWGQGTQVTVSS | low polyreactivity
QVHLVESGGGLVQAGGSLRLSSAASGSTFLYYGMGWYRQAPGTERELVATITWRGGRTYYADSVKGRFTISRDNAKNSVYLQMNSLNPEDTAVYYCAARVVGSYLKPYPYGLYYWGQGTQVTVSS | high polyreactivity
QVHLVESGGGLVQAGGSLRLSSAAYGGIFDDNAMGWYRQAHGKERELVAAISSSGGSTYYADSVKGRFTISRDNAKYTVYLQMNSLKPEDTAVYYCNADRRRRFGYWGQGTQVNVSS | high polyreactivity
QVHLVESGGGLVQAGGSLRLSSPASGRIFYRKALGWSRQETGKERELVAAISSSGGSTYYADSVKGRFTISRDNAKNTVYLQMNSLKPEDTEVYYCNKAVWGRSKYDFCGQGTQVTVSS | high polyreactivity
QVHLVESGGGLVQAGGSLRLTCAASGRTFPGYDMGWYRQAPGKERELVAAISWSGTSTYYADSVKGRFTISRDNSKNTVYLQMNSLIPEDTAVYYCAARVKGQWNTYEYWGQGTQVTVSS | high polyreactivity
QVHLVESGGGLVQAGGSLRLTCAASGSIFLYYAMGWYRQAPGKERELVAGIRRGGRTNYADSVKGRFTISRDNAKNTVYLQMNSLKPEDTAVYYCAKGGYWGQGTLVTVSS | high polyreactivity
QVHLVESGGGLVQAGGSLRLTCAASGSTFDINAMRWYRQAPGKERELVASITFSGGSTYYADSVKGRFTISRDNAKNTVYLQMNSLKPEDTAVYYCAADSSGEYPGGYWGQGTQVTVSS | low polyreactivity
QVHLVESGGGLVQAGGSLRVSCDASGILYTVYAMGWYRQAPGKQRELVAAITWSGGSTYYADSVKGRFTISRDNAKNTVYLQMNSLKPEDTEVYYCNTVGRVWDVETDGDYDYWGQGTQVTVSS | low polyreactivity
QVHLVESGGGLVQAGGSLSLSCAASGSIFRYYAMGWYRQAPGKEREFVAAITRGGGRTYYADSVKGRFTISRDTAKHTVYLQLNSLKPEDTAVYSCAAGPPRTRYRNARFDYWGQGTQVTVSS | high polyreactivity
QVHLVESGGGLVQAGGTLRLSCAASGFTFRIYAMGWYIQAPGKERELVATISWSGTSTYYADSVKGRFTISRDNAKNTVYLQMNSLKPEDTAVYYCAKDGVSVYWLNKYYYWGQGTQVTVSS | low polyreactivity
QVHLVESGGGLVQAGGTLRLSCYASGRTIDTNAMGWYRQPPGKEREMVATINCSGGRTHYADSVKGRFTISRDNAKNTVYLQMNSLKPEDTAVFYCAKASSRRYWTIRDCDYWGQGTQVTVSS | low polyreactivity
QVHLVESGGGLVQAGRSLRISCAASGRTFYGYAMGWYRQAPGKERELVAAITNGGRTYYADSVKGRFTISRDNAKNTVYLQMNSLKPEDTAVYYCAAGTGRGRSTLGSYYWGQCTQVTVSS | high polyreactivity
QVHLVESGGGLVQAGVSLRLSCAASGRIFEENAMGWYRQAPGKERELVAAITYSGGSTYYADSVKGRFTISRDNAKNTVYLQMNSLKPEDTAVYYCAATVDLVYIDYDYWGQGTQVTVSS | low polyreactivity
QVHLVESGGGLVQARGSLRLSCAASGSIFRNYAMGWYRQAPGKERELLATISGRGGRTYYADSVKGRFTISRDNAKNTVYLQMNSLKPEDTAVYYCAARGTLGKYSTATVYWGKGTQVTVSS | high polyreactivity
QVHLVESGGGLVQEGGSLRISCAASGGTFHSNDMGWYRQAPGKESELVASINWSGGSTYYSDSVKGRFTISRDNAKNTVYLQMNRLKPEDNAVYYCAARESYPGYGYDHWGQGTQVTVSS | low polyreactivity
QVHLVESGGGLVQEGGSLRLSCAASGSIFQYYAMGWYIQAPGKERELVAAISWRSGRTYYADSVKGRFTISRDNAKNTVYLQMNSLKPEDTAVYYCIRGYARDYDYWGQGTQVTVSS | high polyreactivity
QVHLVESGGGLVQSGGSLRLRCAASGSTFYGYTKAWYRQAPGKERELVAAINWSGTRTYYADSVNGRFTISRDTAKNTVYLQMNSLKPEDTAVYYCAAERYYWGLGTQVTVSS | high polyreactivity
QVHLVESGGGLVQSRGSLRLSCAASGNIFGNNAMGWYRLAPGKERELVAAISSSGTSTYYADSVKGRFTISRDNAKNTVYLQMNSLKPEDTEVYYCNADPLPYDGYYDYDYWGQGTQVTVSS | low polyreactivity
QVHLVESGGRLVQAGVSLRLSCAASGRIFSNYAMGWYIQAPGKERELVAAISRGGGRTFYADSVKGRFTISRDNAKNTVYLQMNSLKPEDTAVYYCATRSYYVKGDYWGQGTQVTVSS | high polyreactivity

Sequence | polyreactivity (PSR sort gate)
QVHLVESGGVLVQAGGRLRLSCAAYGNIIGFNAMGWYRQAPGTERELVAAINSGGSTYYPDSVKGRFTISRDNAKNSVYLQMNSLKPEDSAVYYCAARVRIRGGGYDDWGQGTQVTVSS | high polyreactivity
QVHLVESGGVLVQAGGSLLLSCGACGSIFAQYTMGWYRNAPGKDRELVAAISSSGGSTYYADSVKGRFTISRDNANNTFYLQMNSLKAEDTAVYYCAARGAHYLRSGDHWGQGTQVNVSS | low polyreactivity
QVHLVESGGVLVQAGGSLRLSCAASGSIYESYVMGWYRQAPRKERELVASISSGGSTYYADSVKGRFTISRDNAKNTVYFQNNSLKQEDTAGYYCAANYDGGYLDYEAGYRLEYDFWGQGTQVTVSS | low polyreactivity
QVHLVESGRGLVQAGGSLSVTCSASGFTFYWYTMGWYRRAPGKERELVAAISRRGGSTSYADSVKGRFTISRDNAKNTVYLKMKILKPDDTAVYYCAKTPGWTDYDYWGQGTQVTVSS | high polyreactivity
QVHLVESGVGLDQAGGSLRLSCASTGYIFETYAMGWYRPATGKERELVAAISRGASTYYADSVKGRFTISRDNAQNTVSLQLNSLKQEDTAVYYCAPTRRSWHRYGYWGQGTQVTVSS | low polyreactivity
QVHLVESGVGLVQAGCSLRLSCAASGIIFLTNAMGWYRQAPGKERELVAAITAIGGSTYYADSVKGRFTISRDNAKNTVYLQINSLKPEDTAVYYCAADFSYVYYLYDYWGQGTQVTVSS | low polyreactivity
QVHLVESGVGLVQAGGSLRLSCAASGYIFPYYTMGWYRQAPGKERELVAAITIGGSTYYADSVKGRFTISRDNAKNTVYLQMNSLKPEDTAVYYCAARSRYYDTRFDYWGQGTQVTVSS | low polyreactivity
QVHLVESRGGLVQAGGSLRLSCAASGYTFGHYALGWYRHAPGKERELVAVITSGGSTNYADSEKGRFTISRDNAKNNVYLQMKSLKPEETAVYYCAADLYFYYVWLRDYWGQGTQVTVSS | low polyreactivity
QVHLVESRGGLVQAGGSLRLSCAASVFTFRYYAMGWYRQAPGKERELVAAITSDGITNYADSVKGRFTISRDNAKNTVYLQMNSLKPEDTAVYYCAAVGWFYGIRLEYWGQGTQLTVSS | high polyreactivity
QVHLVESVGGLFQAGGSLRLSCDASGRTFPINAMGWYRQAPGKERELVARISRTSGSTYYADSVKGRFTISRDNAKNTVYLQMNSLNPEDTAVYYCAAVRDKYFRARYGYWGQGTQVTVSS | high polyreactivity
QVHLVESVGGLVQAGGSLRLSCAASGRIIYTYAMGWYIQAPGKERELVAAISWSGGSTYYADSVKGRFTISRDNAKNTVYLQMNSLKPEDTAVYYCNAAYYGYENLSKRGYWGQGTQVTVSS | high polyreactivity
QVHLVESVGGLVQAGGSLRLSCAASGRTFHYYAMGWYRQAPGKERELVAGITGGGSTYYADSVKGRFTISRDNAKNTVYLQMNSLKPEDTAVYYCAADRSYYGYGYWGQGTQVTVSS | low polyreactivity
QVHLVESVGGLVQAGGSLRLSCAASGSIFLRYGMGWYRQAPGKERELVASISSSGGSTYYADSVKGRFTISRDNAKNTVYLQMNSLKPEDTAVYYCAADVPGARVSYWTSSGWHYDYCGQGTQVTVSS | high polyreactivity
QVHLVESVGGLVQAGGSLRLSCAASGSTFIYYAMVRYRQAPGKERELVASISRSGGSTYYADSVKGRFTISRDNAKNTVYLQMNSLKPEDTAFYYCARAYRSSFNYWGQGTQVTVSS | high polyreactivity
QVHLVESVGGLVQAGGSLRLSCASSGFTFPYYAMGWYRQQPGKERELVAAISWIGDSTYYADSVKGRFTISRDNAKNTVYLQMNSLKPEDTAVYYCAAGYKWSIPNRDYDYWGQGTQVTVSS | low polyreactivity
QVHLVETGGGLVQAGGSLRLSCAASGFIFIWYALGGYRQAPGKERELVAAITSDGGRTYYADSVKGRFTISRDNAKNSVYFQMNSLKPEDTAVYYCYAVSSATKYEYWGQGTQVTVSS | high polyreactivity
QVHLVETGGGLVQAGGSLRLSCAASGYIFGWYAMGWYRQAPGKERELVAAITRGGSTNYADSVKGRFTISRDNAKNTVYLLMNSLKPEDTAVYYCNTEDWAVGSPEVEYEYDYWGQGTQVTVSS | low polyreactivity
QVHLVETVGGLVKAGGSLRLSFAASGSIFTSNDMGWYRQEPGKERELVAAISSGGRTYYADSVKGRFTISRDNAKNTVYLQMNSLKPEYTAVYYCAVDPHLYALRGAVYYWGQGTQVTVSS | low polyreactivity
QVHLVQSGGGLVQAGGSLRISSAASGSTFSPYDMGRYRQAPGKEREMVAGITDGAITTYADSVKGSFTISRDNANNTVYLQMNSLKPEDTEVYYCAAFLWAKYHPGYYYWGQGTQETVSS | low polyreactivity
QVHLVQTRGGLVQAGGSLRLSCAASGLTFTYYAMGWNRPEPGKERQLVSAISSSGSDTYYADSVKGRFTISRDYALNTVYFQMNSLKTEDTAVYYCAAVLTALSPDFEYEYWGQGTQVTVSS | low polyreactivity
QVHRVESGGGLVQAGGCLRLSCAASGRTFARYVMGGYRQAPGKERELVAAINSGGTTYYADSVKGRFTISRDNAKNTVYLQMNSLKPEDTAVYYCNGRRGHYAYDYWGQGTQVTVSS | high polyreactivity
